Assay results reported in patent publication US20020028202A1 (Biogen, published 2002).

How the values were obtained:
Experiment in all cases: staining of transfected COS-7 cells, FACS
[1] = target: T1, human gc chain mutant, VEY replaced by Ala (Domain 1 Loop AB), myc-tagged, on COS-7 cells (human, UniProt P31785 23-369)
T1 construct: whole, on cells; not shown: 9 amino acid myc tag at the 5' end of the construct
T1 sequence (looked up): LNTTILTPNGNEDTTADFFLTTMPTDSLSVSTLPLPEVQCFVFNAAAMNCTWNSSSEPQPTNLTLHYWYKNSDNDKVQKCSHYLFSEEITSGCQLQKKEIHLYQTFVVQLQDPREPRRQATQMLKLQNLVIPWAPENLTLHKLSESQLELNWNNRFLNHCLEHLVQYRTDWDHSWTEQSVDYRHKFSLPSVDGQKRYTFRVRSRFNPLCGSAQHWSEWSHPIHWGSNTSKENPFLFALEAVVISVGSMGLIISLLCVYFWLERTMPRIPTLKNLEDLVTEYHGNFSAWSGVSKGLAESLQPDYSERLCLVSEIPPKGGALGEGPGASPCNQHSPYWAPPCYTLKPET
Method: (§1) COS-7 cells are transiently transfected with 20 ug of DNA encoding the gc chain mutant or wildtype cDNA and 180 ug of herring sperm carrier DNA. After 2-3 days, COS-7 cells are harvested and analyzed by immnunofluorescent staining with anti-gc chain mAbs. MAbs are used at 10 ug/ml in PBS-1% BSA-0.02% sodium azide and allowed 30 minutes to bind to 1×10⁶ COS-7 cells. Cells are then washed 2 times, and bound mAb is detected with PE-conjugated goat anti-mouse Fc specific antibodies. The % of positive cells staining with the anti-gc chain mAb over an irrelevant control Ig is determined for a given gc chain mutant and for wildtype gc chain. […] Data are adjusted for any differences in level of expression of a mutant vs. wildtype constructs by measuring the binding of a mAb specific for a 9 amino acid myc tag engineered at the 5′ end of each gc chain construct. […] Values reduced from 100% indicate amino acid mutations which affect mAb binding.
(§2) The value “100%” indicates no effect of mutation and lower percentages indicate greater losses in binding as a result of the sequence change.

[2] = target: T2, human gc chain mutant, NDK replaced by Ala (Domain 1 Loop CC), myc-tagged, on COS-7 cells (human, UniProt P31785 23-369)
T2 construct: whole, on cells; not shown: 9 amino acid myc tag at the 5' end of the construct
T2 sequence (looked up): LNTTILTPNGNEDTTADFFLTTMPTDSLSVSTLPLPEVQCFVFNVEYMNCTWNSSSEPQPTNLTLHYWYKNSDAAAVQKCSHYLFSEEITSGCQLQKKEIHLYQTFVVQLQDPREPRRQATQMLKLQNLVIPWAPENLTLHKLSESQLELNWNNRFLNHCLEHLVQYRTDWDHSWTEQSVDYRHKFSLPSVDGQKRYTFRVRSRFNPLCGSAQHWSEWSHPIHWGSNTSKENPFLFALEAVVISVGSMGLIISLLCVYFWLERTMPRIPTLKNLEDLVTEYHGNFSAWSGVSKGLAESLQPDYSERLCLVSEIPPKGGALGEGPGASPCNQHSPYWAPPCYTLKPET
Method: as §1, §2

[3] = target: T3, human gc chain mutant, LYQ replaced by Ala (Domain 1 Loop EF), myc-tagged, on COS-7 cells (human, UniProt P31785 23-369)
T3 construct: whole, on cells; not shown: 9 amino acid myc tag at the 5' end of the construct
T3 sequence (looked up): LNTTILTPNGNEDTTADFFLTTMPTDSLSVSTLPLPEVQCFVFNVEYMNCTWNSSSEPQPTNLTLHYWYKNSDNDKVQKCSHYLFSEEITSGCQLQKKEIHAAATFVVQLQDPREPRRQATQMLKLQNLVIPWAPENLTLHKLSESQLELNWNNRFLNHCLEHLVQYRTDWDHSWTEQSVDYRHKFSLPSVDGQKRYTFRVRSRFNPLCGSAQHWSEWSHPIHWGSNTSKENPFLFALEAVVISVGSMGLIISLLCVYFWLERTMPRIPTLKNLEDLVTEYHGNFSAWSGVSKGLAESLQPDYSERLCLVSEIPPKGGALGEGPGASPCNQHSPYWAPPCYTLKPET
Method: as §1, §2

[4] = target: T4, human gc chain mutant, NLV replaced by Ala (interdomain residues), myc-tagged, on COS-7 cells (human, UniProt P31785 23-369)
T4 construct: whole, on cells; not shown: 9 amino acid myc tag at the 5' end of the construct
T4 sequence (looked up): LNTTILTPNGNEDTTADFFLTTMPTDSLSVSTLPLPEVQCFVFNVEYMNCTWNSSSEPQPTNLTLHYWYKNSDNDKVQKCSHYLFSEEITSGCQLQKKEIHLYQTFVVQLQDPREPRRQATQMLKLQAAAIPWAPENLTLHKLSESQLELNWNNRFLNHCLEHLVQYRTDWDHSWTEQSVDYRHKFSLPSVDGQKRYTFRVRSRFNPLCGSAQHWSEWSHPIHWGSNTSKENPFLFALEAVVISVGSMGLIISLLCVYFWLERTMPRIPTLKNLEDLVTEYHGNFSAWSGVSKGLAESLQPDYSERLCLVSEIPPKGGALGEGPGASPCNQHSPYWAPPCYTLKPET
Method: as §1, §2

[5] = target: T5, human gc chain mutant, HCL replaced by Ala (Domain 2 Loop BC), myc-tagged, on COS-7 cells (human, UniProt P31785 23-369)
T5 construct: whole, on cells; not shown: 9 amino acid myc tag at the 5' end of the construct
T5 sequence (looked up): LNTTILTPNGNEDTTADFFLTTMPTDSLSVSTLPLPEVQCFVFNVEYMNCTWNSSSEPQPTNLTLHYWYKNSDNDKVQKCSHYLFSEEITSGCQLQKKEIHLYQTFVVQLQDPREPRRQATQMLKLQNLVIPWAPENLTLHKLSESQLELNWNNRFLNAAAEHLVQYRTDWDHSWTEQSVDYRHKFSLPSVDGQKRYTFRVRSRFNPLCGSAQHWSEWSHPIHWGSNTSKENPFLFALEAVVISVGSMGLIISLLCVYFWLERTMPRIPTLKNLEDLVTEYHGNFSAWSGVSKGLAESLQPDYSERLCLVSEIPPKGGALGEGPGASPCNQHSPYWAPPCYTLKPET
Method: as §1, §2

B1: CP.B8 monoclonal antibody (murine anti-human gc chain, hybridoma ATCC HB-12107) (antibody, V domains shown)
VH: LQESGPGLVAPSQSLSITCTVSGFSLTSYGVHWVRQPPGKGLEWLGVIWAGGSTNYNSALMSRLNINRDNSKSQIFLKMNSLQTDDTAIYYCAREGSTVDSMDYWGQGTTVT
VL: DIVMTQSHKFMSTSVGDSITITCKASQDVTTAVAWYQQKPGQSPKLLIYWASTRHTGVPDRFTGSGSGTDYTLTISSVQAEDLALYYCQQHYITPWTFGGGTKLEI
notes: Used unconjugated and biotin-conjugated; also called CP.B8 mAb; mAb CP.B8
[1]
  % binding to mutant gc chain/wildtype gc chain: 0%
[2]
  % binding to mutant gc chain/wildtype gc chain: 71%
[3]
  % binding to mutant gc chain/wildtype gc chain: 13%
[4]
  % binding to mutant gc chain/wildtype gc chain: 0%
[5]
  % binding to mutant gc chain/wildtype gc chain: 8%
